Experiments:
[1] = target: Lip-NKD-HisC (lipoyl domain-tagged HisC of NKD1) (human (identical sequence in mouse and human)) (UniProt Q969G9); test: SEC
[2] = target: Lip-NKD-HisC (lipoyl domain-tagged HisC of NKD1) (human (identical sequence in mouse and human)) (UniProt Q969G9); test: co-aggregation assay
[3] = target: T1, Lip-DVL2-PDZ (human, UniProt O14641 285-373); test: ITC
T1 sequence: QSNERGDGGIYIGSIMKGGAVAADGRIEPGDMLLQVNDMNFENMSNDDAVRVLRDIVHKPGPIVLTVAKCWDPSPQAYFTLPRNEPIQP

[4] = target: the molecule itself; test: SEC-MALS

Sequence of Lip-NKD-HisC (lipoyl domain-tagged HisC of NKD1) (human (identical sequence in mouse and human)) (Q969G9 whole entry, the tested form may be a part): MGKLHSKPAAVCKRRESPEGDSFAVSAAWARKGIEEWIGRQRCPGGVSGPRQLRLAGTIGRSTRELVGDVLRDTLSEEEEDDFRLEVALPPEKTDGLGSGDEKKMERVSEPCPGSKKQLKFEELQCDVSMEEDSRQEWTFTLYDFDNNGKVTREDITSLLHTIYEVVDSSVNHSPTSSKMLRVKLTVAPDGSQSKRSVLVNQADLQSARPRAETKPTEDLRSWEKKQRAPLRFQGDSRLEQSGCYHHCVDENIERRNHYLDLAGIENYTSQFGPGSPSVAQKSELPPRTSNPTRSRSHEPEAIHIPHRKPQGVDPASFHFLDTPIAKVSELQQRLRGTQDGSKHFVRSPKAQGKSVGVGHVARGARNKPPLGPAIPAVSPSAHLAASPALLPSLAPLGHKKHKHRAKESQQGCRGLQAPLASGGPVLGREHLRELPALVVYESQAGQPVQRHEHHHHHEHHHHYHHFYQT

Molecule: Lip-NKD-HisC (lipoyl domain-tagged HisC of NKD1) (from UniProt Q969G9 1-470) (domain or fragment)
- stoichiometry N [1]: 15 to 25

Molecule: MBP-Axin1-HisC (from UniProt O15169 1-862) (domain or fragment)
- molecules per core (molecules per core) [2]: < 5

Molecule: MBP-Axin2-HisC (domain or fragment)
- molecules per core (molecules per core) [2]: < 4

Molecule: MBP-NKD-HisC (maltose-binding protein-tagged HisC of NKD1) (from UniProt Q969G9 1-470) (domain or fragment)
- stoichiometry N [2]: 10

B1: RFP-NKD1-EF (domain or fragment)
chain: EPCPGSKKQLKFEELQCDVSMEEDSRQEWTFTLYDFDNNGKVTREDITSLLHTIYEVVDSSVNHSPTSSKMLRVKLTVAPD
- Kd [3]: 3.2 ± 0.2 µM
- stoichiometry N [4]: 2
